Source: patent US20220235144A1 (QILU PUGET SOUND BIOTHERAPEUTICS, published 2022)
Residue numbers refer to the chain shown, from its start. Where two headings read alike, the source gives them in different places. One block for each binder: values may come before it.

Assays:
[1] = biological target: T1, hSIRPβ1D1 with histidine tag (human, UniProt O00241 30-148); experiment: SPR (Biacore 3000), IgG captured on anti-human IgG, His-tagged D1 analyte
T1 construct: analyte of the Biacore experiments; also called hSIRPβD1; not shown: histidine tag
Description: (§1) Goat anti-human IgG capture antibody (Jackson Laboratories; 109-005-098) was immobilized on the four flow cells in each sensor chip using standard amine coupling chemistry. About 8000 resonance units (RU) of this antibody was immobilized on each flow cell. Flow cells 2, 3, and 4 were used to analyze captured anti-SIRPα antibodies (about 250 to 300 RU were captured on each of flow cells 2, 3, and 4), while flow cell 1 was used as the reference flow cell. The analytes tested were hSIRPαV1D1, hSIRPαV2D1, cynomolgus monkey SIRPαV1D1 (cSIRPαV1D1), cSIRPαV2D1, hSIRPβ1D1, and hSIRPγD1, each of which also included a histidine tag. The sequences of cSIRPαV1D1 and cSIRPαV2D2 are provided in SEQ ID NOs: 143 and 142, respectively. To avoid confusion, the differences between the amino acid sequences of cSIRPαV1D1 and cSIRPαV2D1 are not the same as the differences between the amino acid sequences of hSIRPαV1D1 and hSIRPαV2D1. […] The amino acid sequence of hSIRPβ1D1 can be found in amino acids 30-148 of SEQ ID NO: 144, and the amino acid sequence of hSIRPγD1 can be found in amino acids 31-149 of SEQ ID NO: 141.
(§2) Generally, concentrations from about 0.1×KD to about 10×KD are appropriate for kinetic analysis. From one to six different concentrations were evaluated for each antibody:analyte interaction, depending on the comparisons to be made in an individual experiment. All analyte dilutions were prepared in HPS-EP buffer. Multiple blank (running buffer) injections were run and used to assess and subtract system artifacts. The association phase and dissociation phase for all analyte concentrations were monitored for 180 seconds and 300 seconds, respectively, at a flow rate of 50 μL/min. Between antibody samples, the surfaces of the flow cells were regenerated with 10 mM glycine, pH 1.5 using two injections, each lasting 12 seconds at a flow rate of 50 μL/min.
(§3) The data were analyzed using BIAevaluation software (Biacore, General Electric (GE)). The data was fit using the 1:1 Langmuir model.

[2] = biological target: T2, hSIRPγD1 with histidine tag (human, UniProt Q9P1W8 31-149); experiment: as above
T2 construct: also called first immunoglobulin-like domain of human SIRP Gamma; not shown: histidine tag
Description: as §1, §2, §3

[3] = biological target: T3, hSIRPαV1D1 with histidine tag (human, UniProt P78324 31-147); experiment: as above
T3 construct: analyte of the Biacore experiments; also called first immunoglobulin-like domain of human SIRPα variant V1; not shown: histidine tag
Description: as §1, §2, §3

[4] = biological target: T4, cSIRPαV2D1 with histidine tag (cynomolgus monkey (Macaca fascicularis), UniProt Q5TFQ8 30-146 (human entry)); experiment: as above
T4 construct: also called cynomolgus monkey SIRPαV2D1; not shown: histidine tag
T4 chain: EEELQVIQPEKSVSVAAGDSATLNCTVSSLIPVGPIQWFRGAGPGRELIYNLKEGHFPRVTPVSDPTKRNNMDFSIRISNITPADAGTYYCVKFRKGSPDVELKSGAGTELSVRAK
Description: as §1, §2, §3

[5] = biological target: T5, cSIRPαV1D1 with histidine tag (cynomolgus monkey (Macaca fascicularis), UniProt Q5TFQ8 30-146 (human entry)); experiment: as above
T5 construct: also called cynomolgus monkey SIRPαV1D1; not shown: histidine tag
T5 chain: T4 chain with D19E, V27A, S28T, A42V, N51H, L52Q
Description: as §1, §2, §3

[6] = biological target: T6, hSIRPαV2D1 with histidine tag (human); experiment: as above
T6 construct: analyte of the Biacore experiments; also called first immunoglobulin-like domain of human SIRPα variant V2; not shown: histidine tag
Description: as §1, §2, §3

[7] = biological target: T7, hSIRPαV2 expressed on the cell surface (human, UniProt P78324 31-504); experiment: FACS competition on EXPI293 cells stably expressing hSIRPαV2: biotinylated hCD47:Fc (2.5 µg/ml) mixed with serial dilutions of the antibody, bound hCD47:Fc detected with streptavidin-PE (MFI); blocked ligand: hCD47:Fc
T7 construct: whole, on cells; also called human SIRPα variant V2
Method: (§4) The x axes show the antibody concentration in μg/ml. The y axes show mean fluorescence intensity (MFI) at about 572 nm (due to binding of biotinylated CD47:Fc, detected by a streptavidin-phycoerythrin conjugate).
(§5) Some of the anti-SIRPα antibodies described above were tested in vitro for their ability to inhibit binding of CD47 to hSIRPαV1 or hSIRPαV2 expressed on the surface of EXPI293™ cells stably transfected with DNA encoding these proteins. Briefly, stable transfectants expressing hSIRPαV1 or hSIRPαV2 were seeded into 96-well microtiter plates. […] After 30 minutes incubation, cells were washed, streptavidin-phycoerythrin (streptavidin-PE) was added, and cells were subjected to FACS to detect bound hCD47:Fc. Results were reported as a mean fluorescence intensity (MFI) using FlowJo software (FLOWJO, L.L.C., Ashland, Oreg., USA). FIGS. 4 and 5 show the MFI detected on the y axes of both panels and the antibody concentration on the x axes of both panels.

[8] = biological target: T8, hSIRPαV1 expressed on the cell surface (human, UniProt P78324 31-504); experiment: FACS competition on EXPI293 cells stably expressing hSIRPαV1: biotinylated hCD47:Fc (2.5 µg/ml) mixed with serial dilutions of the antibody, bound hCD47:Fc detected with streptavidin-PE (MFI); blocked ligand: hCD47:Fc
T8 construct: also called human SIRPα variant V1
Method: as §4, §5

[9] = biological target: T7, hSIRPαV2 expressed on the cell surface; experiment: flow cytometry on primary human monocytes (FSC/SSC gate) in PBMCs expressing only SIRPαV2, antibody detected with APC-(Fab)2 goat anti-human IgG Fc (MFI at about 670 nm)
Method: FIG. 6: Binding of anti-SIRPα antibodies to T cells and monocytes. Methods are described in Example 4. […] The x axes show the antibody concentration in μg/ml. The y axes show mean fluorescence intensity (MFI) at about 670 nm (due to binding of allophycocyanin (APC)-conjugated (Fab)₂ goat anti-human IgG Fc-specific secondary antibody).
Some of the anti-SIRPα antibodies were tested in vitro for binding to primary T cells and monocytes in peripheral blood mononuclear cells (PBMCs). Briefly, PBMCs that expressed only SIRPα V2 were seeded in 96-well microtiter plates. Serial dilutions of anti-SIRPα antibodies were incubated with the cells on ice for 30 minutes. […] The cells were then subjected to FACs. T cells were gated based on their anti-CD4 or anti-CD8 binding (detected by FITC fluorescence), since T cells commonly express either CD4 or CD8. Monocytes were gated based on their forward scatter/side scatter (FSC/SSC) profile, since a characteristic FSC/SSC profile can identify monocytes. See, e.g., Marimuthu et al., Characterization of human monocytes subsets by whole blood flow cytometry analysis, J. Vis. Exp. (140), e57941, doi:10.3791/57941 (2018). The binding of anti-SIRPα antibodies to each population was reported as a mean fluorescence intensity (MFI) of the APC channel (670 nm).

[10] = biological target: T7, hSIRPαV2 expressed on the cell surface; experiment: FACS competition: inhibition of biotinylated hCD47:Fc (2.5 µg/ml) binding to EXPI293 cells expressing hSIRPαV2, FIG. 5A
Method: (§6) The x axes show the antibody concentration in μg/ml. The y axes show mean fluorescence intensity (MFI) at about 572 nm.
as §5

[11] = biological target: T8, hSIRPαV1 expressed on the cell surface; experiment: FACS competition on EXPI293 cells stably expressing hSIRPαV1: biotinylated hCD47:Fc (2.5 µg/ml) mixed with serial dilutions of the antibody, bound hCD47:Fc detected with streptavidin-PE (MFI); blocked ligand: hCD47:Fc; remark: listed apart in the source
Method: as §6, §5

Kd [1]: 1.39 nM
Kd [2]: 244 nM
Kd [3]: 67.9 nM
Kd [4]: ~399 nM
Kd [5]: 36.4 nM
Kd [6]: 3.12 nM
IC50 (read off the curve) [7]: ~0.2 µg/mL
IC50 (read off the curve) [8]: ~0.6 µg/mL
B1: Ab1_G4 (antibody, human IgG4 S228P, kappa, V domains shown)
VH: EVQLVESGGGLVKPGGSLRLSCAASGFTFSSYVMSWVRQTPGKGLEWVATISSGGTYTYYPSSVKGRFTLSRDNAKNSLYLQMNSLRAEDTAVYYCASSLTGSSFDYWGQGTTVTVSS
VL: DIVLTQSPASLAVSLGERATISCRASESVDLYGTSFMHWYQQKPGQPPKLLIYRASNLESGVPDRFSGSGSRTDFTLTINPLQAEDVATYYCHQSSDELPWTFGGGTKVEIKR
notes: human IgG4 format, kappa light chain, made in EXPICHO cells

Kd [1]: 11.1 nM
Kd [2]: ~7310 nM
Kd [3]: 231 nM
Kd [4]: ~519 nM
Kd [5]: 127 nM
Kd [6]: 3.09 nM
IC50 (read off the curve) [7]: ~0.3 µg/mL
EC50 (read off the curve) [9]: ~0.06 µg/mL
B2: Ab11_G4 (antibody, human IgG4 S228P, kappa, V domains shown)
VH: B1 VH with S62D, S99Q, S104E
VL: DIVITQSPASLAVSLGERATISCRASESVDSYGNSFMHWYQQKPGQPPKLLIYRASNLESGVPDRFSGSGSRTDFTLTINPLQAEDVATYYCHQSGDLPWTFGGGTKVEIKR
notes: human IgG4 format

IC50 [10]: 0.22 µg/mL
IC50 (read off the curve) [11]: ~0.4 µg/mL
B3: Ab24_G2 (antibody, human IgG2, kappa)
heavy: EVQLVESGGGLVKPGGSLRLSCAASGFTFSSYVMSWVRQTPGKGLEWVATISSGGTYTYYPDSVKGRFTLSRDNAKNSLYLQMNSLRAEDTAVYYCASQLTGSEFDYWGQGTTVTVSSASTKGPSVFPLAPCSRSTSESTAALGCLVKDYFPEPVTVSWNSGALTSGVHTFPAVLQSSGLYSLSSVVTVPSSNFGTQTYTCNVDHKPSNTKVDKTVERKCCVECPPCPAPPVAGPSVFLFPPKPKDTLMISRTPEVTCVVVDVSHEDPEVQFNWYVDGVEVHNAKTKPREEQFNSTFRVVSVLTVVHQDWLNGKEYKCKVSNKGLPAPIEKTISKTKGQPREPQVYTLPPSREEMTKNQVSLTCLVKGFYPSDIAVEWESNGQPENNYKTTPPMLDSDGSFFLYSKLTVDKSRWQQGNVFSCSVMHEALHNHYTQKSLSLSPGK
light: DIVLTQSPASLAVSLGERATISCRASESVDLYGTSFMHWYQQKPGQPPKLLIYRASNLESGVPDRFSGSGSRTDFTLTINPLQAEDVATYYCHQSSDELPWTFGGGTKVEIKRTVAAPSVFIFPPSDEQLKSGTASVVCLLNNFYPREAKVQWKVDNALQSGNSQESVTEQDSKDSTYSLSSTLTLSKADYEKHKVYACEVTHQGLSSPVTKSFNRGEC
notes: like Ab24_G4 but with an IgG2 HC; also called Ab24_IgG2

IC50 [10]: 0.17 µg/mL
IC50 (read off the curve) [11]: ~0.3 µg/mL
B4: Ab24_4422 PA (antibody, human IgG4 S228P, kappa)
heavy: B3 heavy with N193S, F194L, Q197K, T215R, R218S, C220Y, C221G, V222P, E223P, P326A
light: B3 light
